# Source: publication PMC6697736, “A novel thermostable D-amino acid oxidase of the thermophilic fungus Rasamsonia emersonii strain YA” (Scientific Reports, 2019)
# Assays:
# [1] = target: T1, ReDAAO (Rasamsonia emersonii, UniProt A0A499UB99); test: DNPH assay, […] D-Val as substrate; assay type: biochemical; details: read-out: % inhibition at 50 mM
# T1 construct: gene DAO1; full-length, 368 aa, codon-optimised synthetic ORF in pET15b, His-tagged, E. coli BL21(DE3) pLysS; 42 kDa subunit, 185 kDa tetramer; noncovalent FAD
# [2] = target: T1, ReDAAO; test: absorption spectrum; TLC of flavin released by heat denaturation; assay type: binding; details: noncovalent; co-purified from E. coli; pH 8.0
# [3] = substrate: C[C@@H](N)C(=O)O; test: purified protein; details: apparent, 55 °C, 50 mM KPi pH 8.0, 0.02 mM FAD, O2 co-substrate
# [4] = substrate: CC(C)[C@@H](N)C(=O)O; test: purified protein; assay type: biochemical, Rasamsonia emersonii; details: apparent, 55 °C, 50 mM KPi pH 8.0, 0.02 mM FAD, O2 co-substrate
# [5] = substrate: CSCC[C@@H](N)C(=O)O; test: purified protein; assay type: biochemical, Rasamsonia emersonii; details: apparent, 55 °C, 50 mM KPi pH 8.0, 0.02 mM FAD, O2 co-substrate
# [6] = substrate: N=C(N)NCCC[C@@H](N)C(=O)O; test: purified protein; assay type: biochemical, Rasamsonia emersonii; details: apparent, 55 °C, 50 mM KPi pH 8.0, 0.02 mM FAD, O2 co-substrate
# [7] = substrate: N[C@H](CCC(=O)O)C(=O)O; test: purified protein; assay type: biochemical, Rasamsonia emersonii; details: apparent, 55 °C, 50 mM KPi pH 8.0, 0.02 mM FAD, O2 co-substrate
molecule,measurement,setting,value
O=C(O)c1ccccc1 [benzoate],inhibition at 50000 µM,[1],13.2%
C/C=C/C(=O)O [crotonate],inhibition at 50000 µM,[1],22.6%
Cc1cc2nc3c(=O)[nH]c(=O)nc-3n(C[C@H](O)[C@H](O)[C@H](O)COP(=O)(O)OP(=O)(O)OC[C@H]3O[C@@H](n4cnc5c(N)ncnc54)[C@H](O)[C@@H]3O)c2cc1C [FAD],absorption spectrum; TLC of flavin released by heat denaturation,[2],ReDAAO contains noncovalently bound FAD that functions as a cofactor
O=C(O)C[C@@H](O)C(=O)O [D-malate],inhibition at 50000 µM,[1],17.2%
"ReDAAO (Rasamsonia emersonii) (protein, full-length, 368 aa, codon-optimised synthetic ORF in pET15b, His-tagged, E. coli BL21(DE3) pLysS; 42 kDa subunit, 185 kDa tetramer; noncovalent FAD) MATNNIVVLGAGVSGLTTAWLLSKDPSNKITVAAKHMPGDYDIEYCSPWAGANYLPVGAENSRVGQWERATWPHLRDIAQNHPEAGIHFQDTVVYNRTKDQGSTTGQWFSELVKPNPWYGKVLPNFRELSKDELPPGIDNANRFTSVCINTAVYLPWLVGQCRKNGVVFKRAVFKHVAEAANAHHSGQKADLVVNCTGLSSRKLGGVQDNTLLPARGQIVVVRNDPGLMCSISGTDDGDDEVTYMMTRAAGGGTILGGTYQKHNWDSLPDPNLAVRIMKRCIELCPSLVAPGQGIEGLDIIRHGVGLRPVREDGPRIEKELIDGVWVVHNYGHGGYGYQTSFGCATTAVEVVREALQQQKQRRDKARL",Km,[3],2700 ± 300 µM
same,kcat,[3],189 s⁻¹
same,kcat/Km,[3],69900 M⁻¹ s⁻¹
same,Km,[4],628 ± 40 µM
same,kcat,[4],225 ± 2.4 s⁻¹
same,kcat/Km,[4],358000 M⁻¹ s⁻¹
same,Km,[5],213 ± 30 µM
same,kcat,[5],120 ± 3.1 s⁻¹
same,kcat/Km,[5],562000 M⁻¹ s⁻¹
same,Km,[6],19200 ± 4300 µM
same,kcat,[6],45.6 ± 4.5 s⁻¹
same,kcat/Km,[6],2380 M⁻¹ s⁻¹
same,Km,[7],12100 ± 2900 µM
same,kcat,[7],90.7 ± 6.6 s⁻¹
same,kcat/Km,[7],7490 M⁻¹ s⁻¹
